The results in this text go back to paper PMC5080433 (Nature Communications, 2016).

In assay [1] the target is T1, full-length p97 (residues 2–806), purified recombinant (human, UniProt P55072 2-806).
T1 construct: p97 (VCP), human, residues 2-806; Hexamer when alone; in complex with ASPL-C it stands in heterotetramers; also called p97 hexamers; wt p97; source: E. coli BL21 DE3 Rosetta2, purified (Ni-NTA, TEV protease, SEC)
Kind of assay: BLI. Conditions: both partners purified.

For assay [2], the target named is p97-A232E (human, UniProt P55072 2-806, A232E). Kind of assay: SEC. Particulars: both partners purified.

B1: C-terminally His-tagged full-length ASPL (residues 1–553) (natural protein, human, UniProt Q9BZE9 1-553, looked up)
chain: MAAPAGGGGSAVSVLAPNGRRHTVKVTPSTVLLQVLEDTCRRQDFNPCEYDLKFQRSVLDLSLQWRFANLPNNAKLEMVPASRSREGPENMVRIALQLDDGSRLQDSFCSGQTLWELLSHFPQIRECLQHPGGATPVCVYTRDEVTGEAALRGTTLQSLGLTGGSATIRFVMKCYDPVGKTPGSLGSSASAGQAAASAPLPLESGELSRGDLSRPEDADTSGPCCEHTQEKQSTRAPAAAPFVPFSGGGQRLGGPPGPTRPLTSSSAKLPKSLSSPGGPSKPKKSKSGQDPQQEQEQERERDPQQEQERERPVDREPVDREPVVCHPDLEERLQAWPAELPDEFFELTVDDVRRRLAQLKSERKRLEEAPLVTKAFREAQIKEKLERYPKVALRVLFPDRYVLQGFFRPSETVGDLRDFVRSHLGNPELSFYLFITPPKTVLDDHTQTLFQANLFPAALVHLGAEEPAGVYLEPGLLEHAISPSAADVLVARYMSRAAGSPSPLPAPDPAPKSEPAAEEGALVPPEPIPGTAQPVKRSLGKVPKWLKLPASKR
notes: ASPL, human, residues 1-553; cDNA from the Mammalian Gene Collection; also called ASPL-His; source: E. coli BL21 DE3 Rosetta2, purified (glutathione-Sepharose, TEV cleavage, SEC); not shown: His, C-terminal, kept; GST, N-terminal, cleaved
With B1, in assay [1], the Kd was around 2 nM.

B2: ASPL-C (residues 313–553), purified recombinant (domain or fragment)
chain: VDREPVDREPVVCHPDLEERLQAWPAELPDEFFELTVDDVRRRLAQLKSERKRLEEAPLVTKAFREAQIKEKLERYPKVALRVLFPDRYVLQGFFRPSETVGDLRDFVRSHLGNPELSFYLFITPPKTVLDDHTQTLFQANLFPAALVHLGAEEPAGVYLEPGLLEHAISPSAADVLVARYMSRAAGSPSPLPAPDPAPKSEPAAEEGALVPPEPIPGTAQPVKRSLGKVPKWLKLPASKR
Turning to B2, in assay [2], the binding result is given as “binds”.

As usually defined, the Kd is a measure of binding affinity in units of concentration.
